Target: Cereolysin O (CLO) of Bacillus cereus ATCC 11778 (BC1) (Bacillus cereus ATCC 11778 (endogenous in the culture))
Test: SDS-PAGE with Western blot; retentates of BC1 microaerobic culture supernatants (grown with or without 1 g/L BSA, 3 kDa cut-off filter); boiled 5 min in Laemmli buffer with 50 mM DTT; 4-20% Tris-Glycine gel; blot with rabbit anti-streptolysin O antibody

Cereolysin O (CLO) of Bacillus cereus ATCC 11778 (BC1) (natural protein)
stoichiometry N: 2

Reference: paper PMC4735842
